Assay results from CN113512111A (BEIJING MABWORKS BIOTECH CO LTD, dated 2021).

Assays:
FcγRIIIa(158V) = FcγRIIIa(158V) (UniProt P08637 17-208)
C1q蛋白 = C1q蛋白 (UniProt P02745 23-245; P02746 28-253; P02747 29-245)
[1] = biological target: T1, 埃博拉病毒表面抗原GP蛋白 (soluble GP used as the analyte in BIAcore) (埃博拉病毒 (Ebola virus), UniProt Q05320 33-650)
T1 sequence: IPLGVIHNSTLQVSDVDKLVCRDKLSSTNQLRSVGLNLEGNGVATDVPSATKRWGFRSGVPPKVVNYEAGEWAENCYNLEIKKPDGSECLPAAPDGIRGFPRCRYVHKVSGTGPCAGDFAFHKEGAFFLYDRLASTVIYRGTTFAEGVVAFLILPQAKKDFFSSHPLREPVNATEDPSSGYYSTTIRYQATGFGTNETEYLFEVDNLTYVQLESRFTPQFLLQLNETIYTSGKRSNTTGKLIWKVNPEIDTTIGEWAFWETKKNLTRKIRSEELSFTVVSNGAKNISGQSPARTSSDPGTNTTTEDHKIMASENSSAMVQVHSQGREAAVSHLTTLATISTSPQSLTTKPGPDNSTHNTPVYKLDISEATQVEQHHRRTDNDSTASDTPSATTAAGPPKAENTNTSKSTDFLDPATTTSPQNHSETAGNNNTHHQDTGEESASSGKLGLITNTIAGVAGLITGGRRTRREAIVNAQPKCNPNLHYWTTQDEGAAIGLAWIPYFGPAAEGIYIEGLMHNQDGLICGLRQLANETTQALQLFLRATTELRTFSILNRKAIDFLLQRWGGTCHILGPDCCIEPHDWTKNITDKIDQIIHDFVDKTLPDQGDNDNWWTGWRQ

[2] = biological target: T2, 埃博拉GP蛋白 on 埃博拉假病毒(扎伊尔型) (HIV-backbone luciferase pseudovirus) (埃博拉病毒(扎伊尔型) (Zaire ebolavirus), UniProt Q05320 33-676); test: cell-based or functional assay
T2 sequence: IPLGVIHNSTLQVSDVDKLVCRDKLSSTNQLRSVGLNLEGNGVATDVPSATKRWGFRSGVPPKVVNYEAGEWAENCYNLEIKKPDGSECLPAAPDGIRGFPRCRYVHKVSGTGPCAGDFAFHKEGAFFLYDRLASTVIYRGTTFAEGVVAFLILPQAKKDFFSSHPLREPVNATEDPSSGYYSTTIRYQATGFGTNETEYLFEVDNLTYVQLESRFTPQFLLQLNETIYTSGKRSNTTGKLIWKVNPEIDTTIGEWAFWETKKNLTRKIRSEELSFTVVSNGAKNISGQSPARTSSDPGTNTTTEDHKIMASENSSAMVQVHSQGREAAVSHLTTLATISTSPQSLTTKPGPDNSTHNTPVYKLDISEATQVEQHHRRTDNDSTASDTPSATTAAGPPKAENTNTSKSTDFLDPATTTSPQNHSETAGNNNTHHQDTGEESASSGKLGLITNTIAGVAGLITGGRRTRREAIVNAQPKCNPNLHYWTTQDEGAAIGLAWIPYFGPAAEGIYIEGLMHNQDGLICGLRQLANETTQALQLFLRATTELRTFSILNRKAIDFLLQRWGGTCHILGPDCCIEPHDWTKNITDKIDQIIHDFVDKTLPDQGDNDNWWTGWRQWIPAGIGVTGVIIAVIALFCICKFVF

Sequence of C1q蛋白 (P02745 23-245 limits assumed, chain 1 of 3): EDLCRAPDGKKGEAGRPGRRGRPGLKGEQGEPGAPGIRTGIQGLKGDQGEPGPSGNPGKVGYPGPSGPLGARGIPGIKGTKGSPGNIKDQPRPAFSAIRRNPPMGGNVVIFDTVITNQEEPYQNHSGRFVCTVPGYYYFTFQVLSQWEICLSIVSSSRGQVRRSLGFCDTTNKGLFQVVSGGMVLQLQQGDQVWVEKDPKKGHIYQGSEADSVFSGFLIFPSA
Sequence of C1q蛋白 (P02746 28-253 limits assumed, chain 2 of 3): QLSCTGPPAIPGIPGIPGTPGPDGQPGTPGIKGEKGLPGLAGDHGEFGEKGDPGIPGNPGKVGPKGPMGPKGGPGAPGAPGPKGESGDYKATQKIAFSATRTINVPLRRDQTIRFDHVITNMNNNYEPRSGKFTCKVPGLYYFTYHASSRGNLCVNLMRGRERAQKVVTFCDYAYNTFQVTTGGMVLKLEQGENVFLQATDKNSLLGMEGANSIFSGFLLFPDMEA
Sequence of C1q蛋白 (P02747 29-245 limits assumed, chain 3 of 3): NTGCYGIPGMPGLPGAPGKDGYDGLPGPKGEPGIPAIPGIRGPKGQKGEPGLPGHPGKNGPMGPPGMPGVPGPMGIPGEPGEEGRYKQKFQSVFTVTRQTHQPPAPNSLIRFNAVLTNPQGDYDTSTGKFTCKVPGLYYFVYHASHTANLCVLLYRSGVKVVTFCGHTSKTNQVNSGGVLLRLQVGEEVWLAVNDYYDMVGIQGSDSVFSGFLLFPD
Sequence of FcγRIIIa(158V) (P08637 17-208 F176V limits assumed): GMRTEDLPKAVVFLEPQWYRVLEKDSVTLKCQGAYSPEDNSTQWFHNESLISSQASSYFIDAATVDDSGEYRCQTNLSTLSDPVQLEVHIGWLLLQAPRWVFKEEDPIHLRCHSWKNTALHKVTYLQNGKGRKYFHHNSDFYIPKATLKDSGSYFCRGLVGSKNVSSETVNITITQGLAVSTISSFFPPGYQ

| Binder | EC50 (FcγRIIIa(158V)) | EC50 (C1q蛋白) | Kd [1] | 体外假病毒感染细胞中和活性 半数抑制浓度(IC50), HEK293细胞体系, batch M20141202 [2] | 体外假病毒感染细胞中和活性 半数抑制浓度(IC50), HEK293细胞体系, batch M20141203 [2] | 体外假病毒感染细胞中和活性 半数抑制浓度(IC50), HEK293细胞体系, batch M20150101 [2] | 体外假病毒感染细胞中和活性 半数抑制浓度(IC50), Huh7细胞体系, luciferase reporter [2] |
| --- | --- | --- | --- | --- | --- | --- | --- |
| 抗体MIL77-2 (anti-Ebola virus glycoprotein monoclonal antibody, afucosylated, made in CHOK1-AF cells) (antibody) heavy: not shown light: DIQMTQSPASLSASVGETVTITCRASENIYSYLAWYQQKQGKSPQLLVYNAKTLIEGVPSRFSGSGSGTQFSLKINSLQPEDFGSYFCQHHFGTPFTFGSGTELEIKRTVAAPSVFIFPPSDEQLKSGTASVVCLLNNFYPREAKVQWKVDNALQSGNSQESVTEQDSKDSTYSLSSTLTLSKADYEKHKVYACEVTHQGLSSPVTKSFNRGEC | 0.054 to 0.073 µg/mL | 0.772 to 0.968 µg/mL | 31.9 to 36.2 nM | 0.058 µg/mL | 0.023 µg/mL | 0.017 µg/mL | 0.359 µg/mL |
| 抗体MIL77-1 (anti-Ebola virus glycoprotein monoclonal antibody, afucosylated, made in CHOK1-AF cells) (antibody) heavy: not shown light: DIQMTQSPASLSVSVGETVSITCRASENIYSSLAWYQQKQGKSPQLLVYSATILADGVPSRFSGSGSGTQYSLKINSLQSEDFGTYYCQHFWGTPYTFGGGTKLEIKRTVAAPSVFIFPPSDEQLKSGTASVVCLLNNFYPREAKVQWKVDNALQSGNSQESVTEQDSKDSTYSLSSTLTLSKADYEKHKVYACEVTHQGLSSPVTKSFNRGEC | 0.062 to 0.064 µg/mL | 0.818 to 0.96 µg/mL | 50.6 to 53.8 nM | 4.59 µg/mL | – | – | 0.799 µg/mL |
